Assay results: paper PMC8318587, “Structure-guided microbial targeting of antistaphylococcal prodrugs” (eLife, 2021)

Legend:
Experiment in all cases: Esterase substrate specificity, fluorogenic SAR library kinetics
Type in all cases: biochemical, Staphylococcus aureus
Details in all cases: other: SaGloB, fluorogenic ester substrate; pH 7.5; 37.0 °C
[1] = substrate: CC(C)CCC(=O)OCOc1ccc2c(c1)Oc1cc(OCOC(=O)CCC(C)C)ccc1C21OC(=O)c2ccccc21
Procedure: (§1) Kinetic measurements were performed according to [White et al., 2018] with minor variation. Lyophilized human and mouse sera were resuspended according to manufacturer instructions in highly pure, filtered water at protein concentrations of 85 mg/mL and 70 mg/mL, respectively. One milliliter of resuspended serum was added to a 24 mL mastermix for a final concentration of 31.25 mM Tris pH 7.5, 312.5 mM NaCl, 1.25 mM MgCl2, 12.5% glycerol, and 3.4 mg/mL or 2.8 mg/mL protein for human and mouse serum, respectively. For purified proteins, 5 mL of a 75 µg/mL stock was added to yield a 20 mL mastermix containing 31.25 mM Tris pH 7.5, 312.5 mM NaCl, 1.25 mM MgCl2, 12.5% glycerol, and 18.75 µg/mL protein. Mastermix was stored on ice when not in use. Twenty microliters of mastermix was transferred to a black, 96-well half area microplate (Corning, CLS3993) and prewarmed at 37°C. Fluorogenic substrates were prepared as 10 mM stock solutions in 100% DMSO and were diluted in water to a starting concentration of 500 µM. Enzyme catalyzed substrate hydrolysis was initiated by addition of 5 µL substrate dilution in technical duplicate to the prewarmed serum or protein solution. Final assay concentrations were as follows: 25 mM Tris pH 7.5, 250 mM NaCl, 1 mM MgCl2, 10% glycerol, and protein at a concentration of 2.72 mg/mL (human serum), 2.24 mg/mL (mouse serum), or 15 µg/mL (FrmB, GloB). The resulting change in fluorescence (λex = 485 nm, λem = 520 nm) was followed for 15 min at 37°C, collecting data every 30 s on a FLUOstar Omega microplate reader (BMG Labtech). Fluorescence measurements were converted to molar concentrations using a fluorescein standard curve (2.5 nmol–0.6 pmol). The initial rates of reaction were measured three independent times with two technical replicates per measurement and fit to a line using GraphPad Prism (GraphPad Software, La Jolla, CA). Initial rates of reaction were plotted versus the concentration of substrate and fit to a standard Michaelis–Menten equation (v = Vmax[S]/(Km + [S])), yielding estimates of Vmax and Km. Values for kcat and kcat/Km were calculated based on amount of enzyme added when purified enzymes were used.

[2] = substrate: CC(C)OCC(=O)OCOc1ccc2c(c1)Oc1cc(OCOC(=O)COC(C)C)ccc1C21OC(=O)c2ccccc21
Procedure: as §1

[3] = substrate: CCCC(=O)OCOc1ccc2c(c1)Oc1cc(OCOC(=O)CCC)ccc1C21OC(=O)c2ccccc21
Procedure: as §1

[4] = substrate: CCCC(C)C(=O)OCOc1ccc2c(c1)Oc1cc(OCOC(=O)C(C)CCC)ccc1C21OC(=O)c2ccccc21
Procedure: as §1

[5] = substrate: CCSCCC(=O)OCOc1ccc2c(c1)Oc1cc(OCOC(=O)CCSCC)ccc1C21OC(=O)c2ccccc21
Procedure: as §1

[6] = substrate: COCC(=O)OCOc1ccc2c(c1)Oc1cc(OCOC(=O)COC)ccc1C21OC(=O)c2ccccc21
Procedure: as §1

[7] = substrate: CSCC(=O)OCOc1ccc2c(c1)Oc1cc(OCOC(=O)CSC)ccc1C21OC(=O)c2ccccc21
Procedure: as §1

B1: SaGloB (Staphylococcus aureus subsp. aureus str. Newman) (protein)
chain: MRISSLTLGLVDTNTYFIENDKAVILIDPSGESEKIIKKLNQINKPLKAILLTHAHFDHIGAVDDIVDRFDVPVYMHEAEFDFLKDPVKNGADKFKQYGLPIITSKVTPEKLNEGSTEIEGFKFNVLHTPGHSPGSLTYVFDEFAVVGDTLFNNGIGRTDLYKGDYETLVDSIQDKIFELEGDLPLFPGHGPYTTVDDEQLNPFLHG
Km [1]: 48.00 µM
Vmax [1]: 0.444 pmol*min-1*μg protein-1
kcat [1]: 0.0663 10-3 s-1
kcat/Km [1]: 1.38 M⁻¹ s⁻¹
Km [2]: 12.0 µM
Vmax [2]: 2.91 pmol*min-1*μg protein-1
kcat [2]: 0.435 10-3 s-1
kcat/Km [2]: 36.1 M⁻¹ s⁻¹
Km [3]: 6.23 µM
Vmax [3]: 0.497 pmol*min-1*μg protein-1
kcat [3]: 0.0744 10-3 s-1
kcat/Km [3]: 11.9 M⁻¹ s⁻¹
Km [4]: 84.89 µM
Vmax [4]: 0.351 pmol*min-1*μg protein-1
kcat [4]: 0.0524 10-3 s-1
kcat/Km [4]: 0.618 M⁻¹ s⁻¹
Km [5]: 31.7 µM
Vmax [5]: 0.18 pmol*min-1*μg protein-1
kcat [5]: 0.0266 10-3 s-1
kcat/Km [5]: 0.840 M⁻¹ s⁻¹
Km [6]: 73.5 µM
Vmax [6]: 217 pmol*min-1*μg protein-1
kcat [6]: 32.5 10-3 s-1
kcat/Km [6]: 442 M⁻¹ s⁻¹
Km [7]: 32.49 µM
Vmax [7]: 14.9 pmol*min-1*μg protein-1
kcat [7]: 2.22 10-3 s-1
kcat/Km [7]: 68.4 M⁻¹ s⁻¹
